These results are taken from patent US20250051455A1 (Hoffmann-La Roche, published 2025).

Test [1] concerns the target T1, modified human HLA-G β2M MHC class I complex (HLA-G specific amino acids replaced by HLA-A consensus amino … (human)).
T1 construct: Counter antigen: single-chain fusion of peptide, beta-2 microglobulin and HLA-G in which 14 HLA-G unique surface positions were mutated to an HLA-A consensus; also called degrafted HLA-G; HLA-G-0007
The test is described as follows: ELISA, biotinylated degrafted HLA-G on streptavidin plate. The method, then: Streptavidin coated plates (Nunc, MicroCoat #11974998001) were coated with 25 μl/well biotinylated human degrafted HLA-G at a concentration of 250 ng/ml and incubated at 4° C. overnight. After washing (3×90 μl/well with PBST-buffer) 25 μl anti-HLA-G samples (1:3 dilution in OSEP buffer) or rat serum (1:600 dilution in OSEP) were added and incubated 1 h at RT. After washing (3×90 μl/well with PBST-buffer) 25 μl/well of a mixture of goat-anti-rat IgG1-POD (Bethyl #A110-106P), goat-anti-rat IgG2a-POD (Bethyl #A110-109P) and goat-anti-rat IgG2b-POD (Bethyl #A110-111P) 1:10000 in OSEP was added and incubated at RT for 1 h on shaker. After washing (6×90 μl/well with PBST-buffer) 25 μl/well TMB substrate (Roche, 11835033001) was added and incubated until OD 2-3. Measurement took place on a Tecan Safire 2 instrument at 370/492 nm.
(§1) The above table summarizes the binding of different rat anti-human HLA-G monoclonal antibodies, derived from wt protein IMS both of wt as well as OMT rats. Shown are the relative EC50 values [ng/ml] and maximal OD of the respective binding to rec. wt monomeric HLA-G protein or the socalled gegrafted HLA-G (HLA-A consensus sequence on HLA-G backbone) protein as assessed by ELISA. The ELISA was set up by coating the biotinylated wt HLA-G or consensus antigen to strepdavidin plates. After incubation and washing steps, the respective antibodies were bound in a concentration range from 10-0 μg in 1:2 dilution steps. Detection of bound antibodies was carried out by anti-Fc-antibody-POD conjugates. EC50 values were determined from the resulting binding curves at the antibody concentrations generating the half-maximal signal.

Test [2] concerns the target T2, recombinant soluble human HLA-G β2M MHC class I complex, monomer (human).
T2 construct: His tagged; biotinylated where coated on streptavidin plates, non-biotinylated in SPR; also called HLA-G-0003; wt HLA-G (monomer)
The test is described as follows: ELISA, biotinylated wt HLA-G monomer on streptavidin plate. The method, then:
Streptavidin coated plates (Nunc, MicroCoat #11974998001) were coated with 25 μl/well biotinylated human wt HLA-G at a concentration of 250 ng/ml and incubated at 4° C. overnight. After washing (3×90 μl/well with PBST-buffer) 25 μl anti-HLA-G samples (1:3 dilution in OSEP buffer) or reference antibody (G233, Thermo/Pierce #MA1-19449, 500 ng/ml) were added and incubated 1 h at RT. After washing (3×90 μl/well with PBST-buffer) 25 μl/well goat-anti-mouse H+L-POD (Biorad #170-6561, 1:2000 in OSEP) or donkey-anti-rabbit IgG POD (GE #NA9340V, 1:5000 in OSE) was added and incubated at RT for 1 h on shaker. For detection of rat IgGs a mixture of goat-anti-rat IgG1-POD (Bethyl #A110-106P), goat-anti-rat IgG2a-POD (Bethyl #A110-109P) and goat-anti-rat IgG2b-POD (Bethyl #A110-111P) 1:10000 in OSEP was added and incubated at RT for 1 h on shaker. After washing (6×90 μl/well with PBST-buffer) 25 μl/well TMB substrate (Roche, 11835033001) was added and incubated until OD 2-3. Measurement took place on a Tecan Safire 2 instrument at 370/492 nm.
as §1
Background: ELISA stands for enzyme-linked immunosorbent assay.

Test [3] concerns the target T3, human HLA-G expressed on cells (JEG3 natural; SKOV3 HLA-G+ and PA-TU-8902 HLA-G+ transfectants) (human).
T3 construct: On cells HLA-G stands in an MHC class I complex with beta-2 microglobulin and peptide; these are not specified; also called cell surface HLA-G; HLAG on JEG-3 cells
The test is described as follows: flow cytometry, JEG3 cells pre-incubated with antibody (40 µg/ml final); competitor ILT2-Fc chimera. The method, then: For analysis, JEG3 cells (ATCC HTB36) were stained with ILT2-Fc fusion proteins (control=no inhibition) with or without pre-incubation with different anti-HLA-G antibodies. For the pre-incubation with anti-HLA-G antibodies 25 μl/well of the cell suspension was transferred into a polypropylene 96-Well V-bottom plate and prechilled in the at 4° C. for 10 min. Anti HLA-G antibodies or reference antibodies (G233, MEM-G/9 or 87G) were diluted in staining buffer to a 2-fold concentration of 80 μg/ml and 25 μl/well of the antibody solution was added to the prepared cells and incubated for 1 h at 5° C. Cells were washed twice with 200 μl/well staining buffer with centrifugation at 300 g for 3 min and finally resuspended in 25 μl/well staining buffer.
The detection of human ILT2-Fc Chimera protein (RD #2017-T2-050) to a) JEG3 cells pre-incubated anti HLA-G mAb or b) untreated JEG3 cells as reference was determined as follows: Briefly, the ILT2-Fc or control human IgG (Jackson-Immuno-Research #009-000-003) were diluted in staining buffer to a 2-fold concentration of 20 μg/ml (ILT2) and 25 μl/well of the ILT2-Fc protein solution was added to the prepared cells and incubated for 2 h at 5° C. Cells were again washed twice with 200 μl/well staining buffer the human ILT2-Fcprotein was detected with fluorescent labeled anti human IgG Fc-gamma specific antibody (F(ab′)₂ Fragment Goat Anti-Human IgG, Fcγ fragment specific-FITC, Jackson-Immuno-Research #109-096-008) at a dilution of 10 μg/ml in staining buffer. Cell pellets were resuspended in 50 μl/well detection antibody. After a 1-hour incubation at 5° C. cells were washed twice with staining buffer, resuspended in 70 μl and measured at a FACS Canto II to determine ILT2 binding to JEG 3 cells.

B1: HLA-G-0039 (antibody, V domains shown)
VH: EVQLLESGGGLVQPGGSLRLSCAASGFTFSSYAMNWVRQAPGKGLEWVSVISGSGVSTYYADSVKGRFTISRDNSRNTLSLQMNSLRAEDTAVYYCAKDGSYNYGYGDYFDYWGQGTLVTVSS
VL: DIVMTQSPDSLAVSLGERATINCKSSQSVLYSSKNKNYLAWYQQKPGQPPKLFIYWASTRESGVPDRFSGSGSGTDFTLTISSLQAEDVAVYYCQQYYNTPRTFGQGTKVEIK
notes: Human antibody from humanized OmniRat (OMT) rats
Consider B1, for which the “Max. OD” value in test [1] was 0.13 OD; in test [2] it was 1.4 OD. For the same molecule, in test [3], the “Inhibition of ILT2 binding to Jeg3 cells” value is -72.9%.

B2: HLA-G-0041 (antibody, V domains shown)
VH: EVQLLESGGGLVQPGGSLRLSCAASGFTFSTYGMSWVRQAPGKGLEWVSVISGGGVSTYYADSVKGRFTISRDNSKNTLYLQMNRLRAEDTAVYYCAKDGSYNYGYGDYFDYWGQGTLVTVSS
VL: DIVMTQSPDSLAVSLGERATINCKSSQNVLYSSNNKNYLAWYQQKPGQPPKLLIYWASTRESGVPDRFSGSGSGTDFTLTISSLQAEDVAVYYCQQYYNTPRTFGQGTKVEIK
notes: as for B1
B2: the results for the “Max. OD” value in test [1] and in test [2] were 0.15 OD and 2.3 OD, respectively. Besides, the “Inhibition of ILT2 binding to Jeg3 cells” value in test [3] is -76.7%.

B3: HLA-G-0031 (antibody, V domains shown)
VH: QVKLMQSGAALVKPGTSVKMSCNASGYTFTDYWVSWVKQSHGKRLEWVGEISPNSGASNFDENFKDKATLTVDKSTSTAYMELSRLTSEDSAIYYCTRSSHGSFRWFAYWGQGTLVTVSS
VL: AIVLNQSPSSIVASQGEKVTITCRASSSVSSNHLHWYQQKPGAFPKFVIYSTSQRASGIPSRFSGSGSGTSYSFTISRVEAEDVATYYCQQGSSNPYTFGAGTKLELK
notes: Rat monoclonal antibody obtained from CD rats
As for B3, the “Max. OD” value in test [1] was determined as 0.13 OD; in test [2], 1.6 OD. Further, the “Inhibition of ILT2 binding to Jeg3 cells” value in test [3] is 95.1%.

B4: HLA-G-0090 (antibody, V domains shown)
VH: QVQLQQSGPGLLKPSQTLSLTCAISGDSVSSNRAAWNWIRQSPSRGLEWLGRTYYRSKWYNDYAVSVQGRITLIPDTSKNQFSLRLNSVTPEDTAVYYCASVRAVAPFDYWGQGVLVTVSS
VL: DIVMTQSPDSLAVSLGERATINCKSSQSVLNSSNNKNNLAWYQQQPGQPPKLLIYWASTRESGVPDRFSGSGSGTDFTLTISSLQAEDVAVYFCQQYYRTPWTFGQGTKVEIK
notes: as for B1
As for B4, the entries for the “Max. OD” value in test [1] and in test [2] were 0.2 OD and 3.4 OD, respectively. The “Inhibition of ILT2 binding to Jeg3 cells” value in test [3] was 91.8%.
